From PMC12663243 (Scientific Reports, 2025)

Tests used:
[1] = molecular target: human somatostatin receptor 4 (SSTR4), PRESTO-Tango construct (human) (UniProt P31391)
[2] = molecular target: human somatostatin receptor 2 (SSTR2), PRESTO-Tango construct (human) (UniProt P30874)
[3] = molecular target: human somatostatin receptor 1 (SSTR1), PRESTO-Tango construct (human) (UniProt P30872)
Chain of human somatostatin receptor 1 (SSTR1), PRESTO-Tango construct (human) (P30872 whole entry): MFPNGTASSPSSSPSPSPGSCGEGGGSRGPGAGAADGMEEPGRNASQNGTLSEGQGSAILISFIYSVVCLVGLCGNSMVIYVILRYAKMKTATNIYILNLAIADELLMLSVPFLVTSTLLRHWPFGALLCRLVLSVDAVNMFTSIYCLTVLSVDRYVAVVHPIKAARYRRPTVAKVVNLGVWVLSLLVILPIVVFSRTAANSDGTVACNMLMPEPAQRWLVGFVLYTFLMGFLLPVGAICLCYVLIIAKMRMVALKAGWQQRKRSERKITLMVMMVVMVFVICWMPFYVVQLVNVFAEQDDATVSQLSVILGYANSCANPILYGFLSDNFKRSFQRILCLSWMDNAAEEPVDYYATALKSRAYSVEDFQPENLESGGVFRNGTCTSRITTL

Chain of human somatostatin receptor 2 (SSTR2), PRESTO-Tango construct (human) (P30874 whole entry): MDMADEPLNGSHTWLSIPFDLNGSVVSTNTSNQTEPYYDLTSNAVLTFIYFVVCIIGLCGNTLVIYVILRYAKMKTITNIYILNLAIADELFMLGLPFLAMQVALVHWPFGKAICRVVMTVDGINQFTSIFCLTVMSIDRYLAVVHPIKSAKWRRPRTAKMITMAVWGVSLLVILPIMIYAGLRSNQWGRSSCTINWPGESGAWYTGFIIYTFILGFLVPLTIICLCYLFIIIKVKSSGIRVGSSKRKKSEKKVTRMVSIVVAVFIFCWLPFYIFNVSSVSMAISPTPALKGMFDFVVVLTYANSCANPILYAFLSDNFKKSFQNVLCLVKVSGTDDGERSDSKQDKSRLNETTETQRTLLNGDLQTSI
Chain of human somatostatin receptor 4 (SSTR4), PRESTO-Tango construct (human) (P31391 whole entry): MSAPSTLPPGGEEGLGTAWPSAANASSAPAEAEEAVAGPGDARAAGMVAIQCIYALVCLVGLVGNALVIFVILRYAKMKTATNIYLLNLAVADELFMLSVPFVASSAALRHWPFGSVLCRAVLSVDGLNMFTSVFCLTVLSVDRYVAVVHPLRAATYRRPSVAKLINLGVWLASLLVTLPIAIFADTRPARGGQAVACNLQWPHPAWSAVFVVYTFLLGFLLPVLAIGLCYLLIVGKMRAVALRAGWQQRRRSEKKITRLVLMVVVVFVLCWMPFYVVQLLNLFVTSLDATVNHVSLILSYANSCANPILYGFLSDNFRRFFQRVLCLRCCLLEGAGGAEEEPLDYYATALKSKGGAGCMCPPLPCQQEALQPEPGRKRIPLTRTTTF

| Substance | PRESTO-Tango β-arrestin recruitment assay (HTLA cells), EC50 [1] [nM] | PRESTO-Tango β-arrestin recruitment assay (HTLA cells), EC50 [2] [nM] | PRESTO-Tango β-arrestin recruitment assay (HTLA cells), EC50 [3] [nM] |
| --- | --- | --- | --- |
| consomatin Fj2 (peptide) | 2000 | 200 | – |
| consomatin Pr1 (peptide) | – | 41 | 130 |
